5 sequences from the DeepSol protein solubility set can be followed below.

This series is described as follows: soluble on expression in E. coli; label from the status in PepcDB or PDB records.
As for “MIFRQIHEEGLAQMSYLLGCAATGEALVVDPRRDVDVYLELAQSLGLRITAIAETHIHADYLSGARELARATGATLYLSDEGDENWKYKGLEGFPHVLLKDGDEFKVGNIRVRAVHTPGHTPEHLSFLVADGAVTDEPLLFLTGDFVFVGDVGRPDLLEEAAGIKGTAEPGARRMFRSLKEKFLTLPDHVQVWPGHGAGSACGKALGALPATTVGYERRHAWWAEYLERDDEEGFVKALLQGQPEAPTYFKEMKRLNRDGMAILGGLPHPGRLTPAQFERWLREGAILVDTRDKFAFAGGHIPGSINIPAGKNFSTWAGWLLPYDRPLVLLARPEEVEALTRALVRIGLDEVVGYIPGLEGYAQGELETVPQVTAKEAKELWEKGKAFVLDVRGRDEYLAGHIPGAQNIHAGRVLAHLDRLPKDRPLIVHCVGGDRSSTAISALLAHGFRNALNLTGGIKAWREAGFPVVQGEELVQA”, the “soluble on expression in E. coli” value is on record as “soluble”.
Consider “MIGAVNSVEAVITSIQGLSGSPEDLSALHDLLRGAQDSLRAEPGVNFSTLDQLDASKHSLGYLYFLEVLTCGPVSKEKAAYEIPIIARFINSCDAGQIRLASYKFVSLCKILKDHVIALGDPLRGVGPLLNAVQKLQVSSKRLTALHPDVLQLCLQAKSYKSGFSILSDDIVEIDQPRDFFLYSYYGGMICIGLKRFQKALELLYNVVTAPMHQVNAIALEAYKKYILVSLIHNGQFTNTLPKCASTAAQRSFKNYTGPYIELGNCYNDGKIGELEALVVARNAEFEEDKNLGLVKQAVSSLYKRNILRLTQKYLTLSLQDIANMVQLGNAKEAEMHVLQMIQDGQIHALINQKDGMVRFLEDPEQYKSSEMIEIMDSVIQRTIGLSKNLLAMDESLSCDPLYLGKVGRERQRYDFGDDFDTVPQKFSM”, for which the “soluble on expression in E. coli” value is “soluble”.
Take “MIGGLFIYNHKGEVLISRVYRDDIGRNAVDAFRVNVIHARQQVRSPVTNIARTSFFHVKRSNIWLAAVTKQNVNAAMVFEFLYKMCDVMAAYFGKISEENIKNNFVLIYELLDEILDFGYPQNSETGALKTFITQQGIKSQHQTKEEQSQITSQVTGQIGWRREGIKYRRNELFLDVLESVNLLMSPQGQVLSAHVSGRVVMKSYLSGMPECKFGMNDKIVIEKQGKGTADETSKSGKQSIAIDDCTFHQCVRLSKFDSERSISFIPPDGEFELMRYRTTKDIILPFRVIPLVREVGRTKLEVKVVIKSNFKPSLLAQKIEVRIPTPLNTSGVQVICMKGKAKYKASENAIVWKIKRMAGMKESQISAEIELLPTNDKKKWARPPISMNFEVPFAPSGLKVRYLKVFEPKLNYSDHDVIKWVRYIGRSGIYETRC”: the “soluble on expression in E. coli” value is listed as “soluble”.
With “MIHLVDYALLKPYLTVDEAVAGARKAEELGVAAYCVNPIYAPVVRPLLRKVKLCVVADFPFGALPTASRIALVSRLAEVADEIDVVAPIGLVKSRRWAEVRRDLISVVGAAGGRVVKVITEEPYLRDEERYTLYDIIAEAGAHFIKSSTGFAEEAYAARQGNPVHSTPERAAAIARYIKEKGYRLGVKMAGGIRTREQAKAIVDAIGWGEDPARVRLGTSTPEALL” the entry was “soluble”; with “MIIATAGHVDHGKTTLLQAITGVNADRLPEEKKRGMTIDLGYAYWPQPDGRVLGFIDVPGHEKFLSNMLAGVGGIDHALLVVACDDGVMAQTREHLQILQLTGNLQLTVALTKADRVDEARIGEVREEVLAALDNYGFADTVLFVTAANEGRGIAELRAHLQQLPARSHAAQHRFRLAIDRAFTVKGAGLVVTGTALSGEVNVGDTLWLTGVNTPMRVRSLHAQNQPTDHAYAGQRIALNIAGDAEKEQLNRGDWLLSDAPVGEAFSRVIVSLALHAPLSQWQPLHIHHAASHVTGRVSLLEGGLAELIFDTPLWLADNDRLVLRDISARATLAGARVVTLKAPRRGKRKPDYLHWLSTLAAAQDDSAALAIHLERGAVNLPDFGWARQLNPLGMRQLIEQHGFIQAGDNLLSAPVAARWQRKILDTLATYHEQHRDEPGPGRERLRRMALPMEDEALVLMLIERMRDDGLIHSHHGWLHLPDHKAGFSDEQQAVWQKVEPLFGDEPWWVRDLAKETGTEEQLMRLVLRQAAQQGIITAIVKDRYYRNDRIVAFANMIRELDQERGSTCAADFRDRLNVGRKLAIQILEYFDRIGFTRRRGNDHLLRDALLFPQKE”, “not soluble”.
